From US20250002593A1 (INMAGENE PTE, published 2025)
Positions count from the first letter of the chain named.

T1: Recombinant hIL-36R protein (Acrobio, Cat #IL2-H52H6) (human, UniProt Q9HB29 20-335)
T1 construct: Bought soluble protein; also called recombinant human IL-36R protein
T1 sequence: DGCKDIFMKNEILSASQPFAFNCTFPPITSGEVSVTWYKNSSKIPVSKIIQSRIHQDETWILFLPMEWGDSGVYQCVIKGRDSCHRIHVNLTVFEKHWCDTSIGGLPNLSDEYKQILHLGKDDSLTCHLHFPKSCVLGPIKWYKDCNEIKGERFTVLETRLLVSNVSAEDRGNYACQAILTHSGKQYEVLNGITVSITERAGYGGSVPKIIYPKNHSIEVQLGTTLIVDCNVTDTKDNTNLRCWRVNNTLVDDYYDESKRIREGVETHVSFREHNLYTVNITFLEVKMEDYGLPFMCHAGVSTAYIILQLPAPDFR

T2: membrane hIL-36R (human, UniProt Q9HB29 20-575)
T2 sequence: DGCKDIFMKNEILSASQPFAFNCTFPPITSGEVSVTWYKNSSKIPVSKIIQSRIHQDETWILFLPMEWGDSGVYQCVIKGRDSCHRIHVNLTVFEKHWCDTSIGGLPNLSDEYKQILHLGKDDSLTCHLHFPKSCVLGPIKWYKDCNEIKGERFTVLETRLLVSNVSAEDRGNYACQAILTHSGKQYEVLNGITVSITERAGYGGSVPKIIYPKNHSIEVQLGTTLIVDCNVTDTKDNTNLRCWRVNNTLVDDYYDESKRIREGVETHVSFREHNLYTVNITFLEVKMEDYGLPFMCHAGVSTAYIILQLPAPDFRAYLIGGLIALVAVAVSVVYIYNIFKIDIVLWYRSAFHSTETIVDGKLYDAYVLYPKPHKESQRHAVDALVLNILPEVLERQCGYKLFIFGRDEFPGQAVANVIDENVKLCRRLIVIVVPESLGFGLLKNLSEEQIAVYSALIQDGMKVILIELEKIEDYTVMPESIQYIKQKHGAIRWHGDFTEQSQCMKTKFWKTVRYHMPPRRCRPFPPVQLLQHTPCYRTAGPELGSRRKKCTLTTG

B1: 9C12 (antibody, V domains shown)
VH: EVQLQQSGPELVKPGASVKMSCKASGYTFTDYHMNWVKRSPGKSLEWIGRINPDYGDARYDQKFKGKATLTVDKSLSTAYMQLNRLTYEDSAVYYCARDGYYVFDYWGQGSTLTVSS
VL: DIVMTQAAFSNPVSLGTSASISCRSSKSLLHSDGITYLSWYLQRPGQSPQLLIYRMSNLVSGVPDRFSGSGSGTDFTLRISRVEAEDVGVYYCAQTLEFPLTFGAGTKLELK
notes: Mouse variable regions, recombinantly expressed
B2: 10F6 (antibody, V domains shown)
VH: QVQLQQSGAELVKPGASVRLSCKASGYTFTEFTIHWVKQRSGQGLEWIGWFYPGSDFIKYNEKFKDKATLTADKSSNTVYMELLRLTSEDSAVYFCARHEDRLSDYSYEWYFDVWGAGTAVTVSS
VL: DIQMTQSPASLSASVGETVTITCRASENIDSYLAWYQQKQGKSPQLLVYGATLLADGVPSRFSGSGSGTQYSLKINSLQSEDVAEYFCQHYYSIPLTFGAGTKLELK
notes: as for B1
B3: 1J3 (antibody, V domains shown)
VH: QVQLEQSGGDLVKPGGSLKLSCAASGFTFSSYGMSWVRQTPDKRLEWVATISSYGSYTSYPDTVKGRFTISRDNAKNTLYLQMSSLKSEDTAMYYCARPDYYVSTGFDYWGQGTTLTVSS
VL: DIVITQSTATLSVTPGDRVSLSCRASQSISDYLHWYQQKSHESPRLLIKYASQSISGIPSRFSGSGSGSDFTLSINSVEPEDVGVYYCQNGHSFPFTFGSGTKLEIK
notes: as for B1
B4: 1C11 (antibody, V domains shown)
VH: EVQVQQSGTELVKPGASVKLSCKASGYTFTNYWLHWVKQRPGQGLEWIGNINPSNGGTNYNEKFKTKATLTVDKSSSTAYMQLSSLTSEDSAVYYCARYSTGFAYWGQGTLVTVSA
VL: DIVLTQTTASLAVSLGQRATISCRASESVDTYGASFMHWYQQKPGQPPKLLIYRASNLESGIPARFSGSGSRTDFTLTVNPVEADDVATYYCQQSNEDPRTFGGGTKLEIK
notes: as for B1
B5: 9H11 (antibody, V domains shown)
VH: QVQLQQSGPELVKPGASVKISCKASGYAFSHSWMNWVKQRPGKGLEWIGWIHLGDGDTYYNGKFKGKATLTADKSSSTAYMQLSSLTSEDSAVYFCARSDGNYVPYAMDYWGQGTSVTVSS
VL: DIVITQTTSSLSASLGDRVTISCRASQDISNYLSWYQQKPDGTVKLLIYYTSRLHSGVPSRFSGSGSGTDYSLTISSLEQEDIATYFCQQDSEHPWTFGGGTELDVR
notes: as for B1
B6: 10D12 (antibody, V domains shown)
VH: QVQLQQPGTELVKPGASVKLSCKASGYTFTRYWMHWVRQRPGQGLEWIGNINPNIGRANYNEKFKNKATLTVDKSSSTAYMQLSSLTSEDSAVYYCARPGETTDYWGQGTTLTVSS
VL: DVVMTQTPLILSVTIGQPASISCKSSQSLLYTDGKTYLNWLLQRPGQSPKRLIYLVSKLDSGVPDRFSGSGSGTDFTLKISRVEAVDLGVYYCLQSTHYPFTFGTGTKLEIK
notes: as for B1
B7: 1A21 (antibody, V domains shown)
VH: EVQLQQSGPELVKPGDSVKISCKASGYSFTGYFMNWVMQSHGKSLEWIGRINPYNGDTFYNQKFKGKATLTVDKSSSTAHMELRSLTSEDSAVYYCAGLGHWYFDVWGTGTTVTVSS
VL: DIVMTQSTLSLPVSLGDQASISCRSSQSIVHSNGNTYLEWYLQKPGQSPKLLIYKVSNRFSGVPDRFSGSGSGTDFTLKISRVEAEDLGVYYCFQGSHVPWTFGGGTKLEIK
notes: as for B1
B8: 5F7-hu-2 (antibody, V domains shown)
VH: QVQLQESGGGLVKPGGSLRLSCAASGFAFTDYYMNWIRQAPGKGLEWVSLIRNKAAGYTIYYADSVKGRFTISRDNAKSSLYLQMNSLRAEDTAVYYCVRDMTIYDGYYVDYALDYWGQGTLVTVSS
VL: EIVMTQSPATLSVSPGERATLSCRASQNINIWLSWYQQKPGQAPRLFIYKASNLHTGVPARFSGSGSGTEFTLTISSLQSEDFAVYYCLQSQSYPLTFGQGTKLEIK
notes: Humanized 5F7; also called humanized 5F7
B9: 5F7-hu-5 (antibody, V domains shown)
VH: EVQLVESGGGLVKPGGSLRLSCAASGFAFTDYYMNWVRQAPGKGLEWVALIRNKAAGYTIYYSAPVKGRFTISRDDSKSTLYLQMNSLKTEDTAVYYCVRDMTIYDGYYVDYALDYWGQGTLVTVSS
VL: DIVMTQSPSSVSASVGDRVTITCRASQNINIWLSWYQQKPGKAPKLFIYKASNLHTGVPSRFSGSGSGTDFTLTISSLQPEDFATYYCLQSQSYPLTFGQGTKLEIK
notes: as for B8
B10: 5F7-2a6 (antibody, human IgG4 S228P, kappa, V domains shown)
VH: B9 VH with A28D
VL: DIVMTQSPSSVSASVGDRVTITCRASRNINIWLSWYQQKPGKAPKLFIYKASNLHTGVPSRFSGSGSGTDFTLTISSLQPEDFATYYCLQSQSYPLTFGQGTKLEIKR
B11: 5F7-2a1 (antibody, human IgG4 S228P, kappa, V domains shown)
VH: B9 VH with A28D, N35H
VL: B10 VL
B12: 5F7-2c4 (antibody, human IgG4 S228P, kappa, V domains shown)
VH: B9 VH with M34L, N35R
VL: B10 VL
B13: 5F7-2g10 (antibody, human IgG4 S228P, kappa, V domains shown)
VH: B9 VH with M34L, N35S
VL: B10 VL
B14: 5F7-2d3 (antibody, human IgG4 S228P, kappa, V domains shown)
VH: B9 VH with A28N
VL: B10 VL
B15: 5F7-2h1 (antibody, human IgG4 S228P, kappa, V domains shown)
VH: B9 VH with F27Y
VL: B10 VL

Each binder was assayed against T1, Recombinant hIL-36R protein (Acrobio, …) (assay: BLI (Gator), antibody on Protein A sensor, hIL-36R analyte).
Protocol: (§1) Antibodies was immobilized onto Protein A biosensor after balance. A baseline was detected for 60 seconds. And then antibody-antigen association was detected for 180 seconds to get the Kon factor data. Followed by dissociation in kinetic buffer for 180 seconds to get the Koff factor data. The regeneration of biosensors was in buffer 10 mM glycine, pH2.0. All the kinetics data were collected at 30° C. Data were acquired with Gator Bioanalysis System.

Kd | Binder
10 nM | B1
0.901 nM | B2
0.597 nM | B3
13.7 nM | B4
0.00631 nM | B5
4.03 nM | B6
0.536 nM | B7

Each binder was assayed against T2, membrane hIL-36R (assay: cell-based or functional assay).

IC50, IL-36R reporter assay: inhibition of ligand induced luminescence in Jurkat-IL36R-IL1Racp-NFkB-luc cells | Binder
0.086 µg/mL | B8
0.0781 µg/mL | B9

Target: T2, membrane hIL-36R
Test: cell-based or functional assay
Remark: another data set of the same source

IC50, IL-36R reporter assay: inhibition of ligand induced luminescence in Jurkat-IL36R-IL1Racp-NFkB-luc cells | Binder
0.0228 µg/mL | B10
0.0195 µg/mL | B11

What follows are binders tested against T1, Recombinant hIL-36R protein (Acrobio, …) (assay: BLI (Gator), antibody on Protein A sensor, hIL-36R analyte; stands under the head koff(1/Ms), read as kon from KD = koff/kon).
Protocol: as §1

kon | Binder
79400 M⁻¹ s⁻¹ | B1
152000 M⁻¹ s⁻¹ | B2
73200 M⁻¹ s⁻¹ | B3
63800 M⁻¹ s⁻¹ | B4
91700 M⁻¹ s⁻¹ | B5
79800 M⁻¹ s⁻¹ | B6
74900 M⁻¹ s⁻¹ | B7

The binders below were run against T1, Recombinant hIL-36R protein (Acrobio, …) (assay: BLI (Gator), antibody on Protein A sensor, hIL-36R analyte; stands under the head kon(1/s), read as koff from KD = koff/kon).
Protocol: as §1

koff | Binder
0.000795 s⁻¹ | B1
0.000137 s⁻¹ | B2
4.37e-05 s⁻¹ | B3
0.000872 s⁻¹ | B4
5.79e-07 s⁻¹ | B5
0.000321 s⁻¹ | B6
4.01e-05 s⁻¹ | B7

Each binder was assayed against T1, Recombinant hIL-36R protein (Acrobio, …) (assay: BLI (Gator)).
Protocol: as §1

Kd | kon | koff | Binder
< 0.1 nM | 39800 M⁻¹ s⁻¹ |  | B10
2060 nM | 203 M⁻¹ s⁻¹ | 0.000418 s⁻¹ | B12
0.638 nM | 28900 M⁻¹ s⁻¹ | 1.84e-05 s⁻¹ | B13
2.46 nM | 35900 M⁻¹ s⁻¹ | 8.83e-05 s⁻¹ | B14
< 0.1 nM | 41000 M⁻¹ s⁻¹ |  | B15
< 0.1 nM | 32500 M⁻¹ s⁻¹ |  | B11

The binders below were run against T1, Recombinant hIL-36R protein (Acrobio, …) (assay: BLI as in Example 2, antibody on Protein A sensor, hIL-36R analyte).
Protocol: as §1

Kd | koff | kon | Binder
6.86 nM | 0.000233 s⁻¹ | 34000 M⁻¹ s⁻¹ | B8
6.28 nM | 0.000294 s⁻¹ | 46700 M⁻¹ s⁻¹ | B9
